US20160230173A1

How the values were obtained:
[1] = biological target: Endogenous glucocorticoid receptor (90-kDa GR) of NALM-6 human leukemia cells (human) (UniProt P04150); test: cell-based or functional assay
[2] = biological target: Doubly mutated GR (double mutagenized GR, both CASP1 cleavage sites LLID and IKQE replaced by alanines), expressed from pLX304 lentivirus (human) (UniProt P04150); test: cell-based or functional assay
[3] = biological target: T1, Glucocorticoid receptor (NR3C1) with the LLID motif mutated to AAAA by site-directed mutagenesis of Myc-DDK tagged NR3C1
T1 chain: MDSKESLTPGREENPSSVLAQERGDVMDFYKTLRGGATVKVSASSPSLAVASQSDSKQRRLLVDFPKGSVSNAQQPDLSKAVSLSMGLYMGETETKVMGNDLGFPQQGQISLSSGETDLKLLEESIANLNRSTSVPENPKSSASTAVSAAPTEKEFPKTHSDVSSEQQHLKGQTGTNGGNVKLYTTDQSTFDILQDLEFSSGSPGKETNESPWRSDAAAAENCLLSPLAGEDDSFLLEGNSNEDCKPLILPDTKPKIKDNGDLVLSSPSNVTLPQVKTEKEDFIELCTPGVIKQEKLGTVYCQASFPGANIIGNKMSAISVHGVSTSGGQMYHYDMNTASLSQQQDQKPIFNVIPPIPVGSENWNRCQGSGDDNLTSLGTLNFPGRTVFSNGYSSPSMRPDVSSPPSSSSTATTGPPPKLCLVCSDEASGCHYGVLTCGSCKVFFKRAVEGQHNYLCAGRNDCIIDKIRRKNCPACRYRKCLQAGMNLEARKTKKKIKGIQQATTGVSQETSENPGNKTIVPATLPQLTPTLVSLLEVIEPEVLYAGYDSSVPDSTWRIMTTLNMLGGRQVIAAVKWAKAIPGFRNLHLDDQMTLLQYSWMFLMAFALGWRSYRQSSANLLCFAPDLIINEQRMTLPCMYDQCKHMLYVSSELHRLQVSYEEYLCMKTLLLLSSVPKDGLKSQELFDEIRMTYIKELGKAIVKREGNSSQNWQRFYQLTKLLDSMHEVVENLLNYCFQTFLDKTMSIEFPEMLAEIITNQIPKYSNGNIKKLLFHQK

| Molecule | GR protein level in CASP1-overexpressing Nalm6 cells 24 hours after activation of CASP1 (western blot) [1] [% reduction] | level of 90-kDa GR after activation of CASP1 (LPS/ATP) in shNT CASP1-overexpressing NALM-6 cells (western blot, normalized for HSP90) [1] [fold lower] | fold decrease in prednisolone LC50 (MTT assay) in CASP1-overexpressing NALM-6 cells expressing GR without CASP1 cleavage sites [2] [fold] | cleavage of mutated GR in CASP1 enzymatic assay (western blot) [3] |
| --- | --- | --- | --- | --- |
| Full-length CASP1 (Origene catalog # RC218364; GenBank Accession No. NM_033292) overexpressed in Nalm6 leukemia cells by lentivirus (from UniProt P29466 1-404) (enzyme) | 35 | 2 | 9.4 |  |
| Recombinant human CASP1 (Enzo Life Sciences CASP1 assay kit for drug discovery, catalog number BML-AK701-0001) (protein) NPAMPTSSGSEGNVKLCSLEEAQRIWKQKSAEIYPIMDKSSRTRLALIICNEEFDSIPRRTGAEVDITGMTMLLQNLGYSVDVKKNLTASDMTTELEAFAHRPEHKTSDSTFLVFMSHGIREGICGKKHSEQVPDILQLNAIFNMLNTKNCPSLKDKPKVIIIQACRGDSPGVVWFKDSVGVSGNLSLPTTEEFEDDAIKKAHIEKDFIAFCSSTPDNVSWRHPTMGSVFIGRLIEHMQEYACSCDVEEIFRKVRFSFEQPDGRAQMPTTERVTLTRCFYLFPGH |  |  |  | Site-directed mutagenesis of the LLID motif (SEQ ID NO: 20) ablated cleavage of the glucocorticoid receptor at this location (FIG. 3B) and revealed a secondary CASP1 cleavage site in the GR |
